# In patent US20210139554A1 (published 2021):
# B1: 26H7 (antibody, V domains shown)
# VH: EVQLVQSGAEVKKPGESLKISCKGSGYRFTNYWIGWVRQMPGKGLEWMGIIYPGDSDTKYSPSFQGQVTISADKSISTAYLQWSSLKASDTAMYYCARHGGYSGRSYYYGMDVWGQGTAVTVSS
# VL: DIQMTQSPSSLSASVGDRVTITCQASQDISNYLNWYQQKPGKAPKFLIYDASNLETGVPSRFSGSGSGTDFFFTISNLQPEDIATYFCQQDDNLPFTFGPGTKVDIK
# B2: 2C3 (antibody, V domains shown)
# VH: EVQLVQSGAEVKKPGESLKISCKGSGYRFTSYWIGWVRQMPGKGLEWMGIIYPGDSDTRYSPSFQGQVTISADKSISAAYLQWSSLKASDTAMYYCARQQVAGMLDYWGQGTLVTVSS
# VL: EIVLTQSPGTLSLSPGERATLSCRASQSFSSSYLVWYQQKPGQAPRLLIYGASSRATGIPDRFGGSGSGTDFTLTISRLEPEDFAVYYCQQYGSSPLTFGGGTKVEIK
# Experiments:
# wild-type human IL-2 = molecular target: T1, wild-type human IL-2 (human, UniProt P60568 21-153); experiment: BIACORE
# T1 construct: The construct used in ELISA and BIACORE is not described; also called hIL-2; WT IL-2
# T1 sequence (P60568 21-153 limits assumed): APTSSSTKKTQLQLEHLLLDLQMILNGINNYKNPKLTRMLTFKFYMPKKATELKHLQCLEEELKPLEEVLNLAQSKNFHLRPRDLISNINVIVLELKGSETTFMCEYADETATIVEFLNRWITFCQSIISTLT
# cynomolgus monkey IL-2 = molecular target: T2, cynomolgus monkey IL-2 (cynomolgus monkey, UniProt Q29615 21-154, limits assumed); experiment: BIACORE
# T2 construct: also called cyno IL-2
# T2 sequence (Q29615 21-154 limits assumed): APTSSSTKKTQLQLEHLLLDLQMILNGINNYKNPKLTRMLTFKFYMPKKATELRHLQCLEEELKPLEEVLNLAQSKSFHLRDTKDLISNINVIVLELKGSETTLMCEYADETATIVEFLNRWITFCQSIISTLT
Binder,Kd (wild-type human IL-2),Kd (cynomolgus monkey IL-2)
B1,~1.3 nM,
B2,,~1.2 nM
